Test results as given in PMC9352680, “A comprehensive thermodynamic model for RNA binding by the Saccharomyces cerevisiae Pumilio protein PUF4”.

T1: PUF4 RNA-binding domain (Saccharomyces cerevisiae, UniProt P25339 537-888)
T1 sequence: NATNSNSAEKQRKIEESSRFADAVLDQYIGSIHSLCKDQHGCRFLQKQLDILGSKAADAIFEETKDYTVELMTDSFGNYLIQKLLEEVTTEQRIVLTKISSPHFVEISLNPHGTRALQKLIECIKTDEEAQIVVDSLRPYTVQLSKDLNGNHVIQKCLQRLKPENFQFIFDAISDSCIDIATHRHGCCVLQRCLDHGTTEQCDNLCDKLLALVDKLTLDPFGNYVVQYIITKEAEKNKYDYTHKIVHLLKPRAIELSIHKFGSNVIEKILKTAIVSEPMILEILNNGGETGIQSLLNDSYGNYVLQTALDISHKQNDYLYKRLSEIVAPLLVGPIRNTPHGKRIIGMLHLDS


Molecular target: T1, PUF4 RNA-binding domain
Assay: Mg; RNA-MaP; 20 mM Na-HEPES pH 7.4, 30 mM KOAc, 0.75 mM MgCl2, 0.1% Tween-20, 5% glycerol, 0.1 mg/mL BSA, 2 mM DTT; 25 C; 0.0125-409.6 nM protein
Settings: tags: N-His6-TEV cleaved; C-SNAP kept, Cy3B-labelled; label: tethered on chip by stalled RNA polymerase

| Binder | Kd [nM] |
| --- | --- |
| ACAAACUGUAUUAUUAUCCACAAAC (ssRNA) [Ie_S3_P5E.1_K5.1_C5.1_H5.1_A5.1_F5.1_[+10TCC]_T5.1] | 5.94 |
| Ie_S4_P3E.2_K3.1_C3.2_[+-2CCC]_H3.1_A3.1_F3.1_T3.2 (ssRNA) RNA: UUUGACAACUGAUCGUUCUUUCUCCCCUUGUAUAUAUAUUCUUUCUCGAUCAGUUGUCUUU | 0.858 |
| Ie_S4_P3E.2_K3.1_C3.2_[+-1CTT]_H3.1_A3.1_F3.1_T3.2 (ssRNA) RNA: UUUGACAACUGAUCGUUCUUUCUCUCUUUGUAUAUAUAUUCUUUCUCGAUCAGUUGUCUUU | 1.24 |
| Ie_S4_P3E.2_K3.1_C3.2_H3.1_[+2TCC]_A3.1_F3.1_T3.2 (ssRNA) RNA: UUUGACAACUGAUCGUUCUUUCUCUUGUCCUAUAUAUAUUCUUUCUCGAUCAGUUGUCUUU | 10.8 |
| Ie_S4_P3E.2_K3.1_C3.2_H3.1_[+3CCC]_A3.1_F3.1_T3.2 (ssRNA) RNA: UUUGACAACUGAUCGUUCUUUCUCUUGUCCCAUAUAUAUUCUUUCUCGAUCAGUUGUCUUU | 13.7 |
| Ie_S4_P3E.2_K3.1_C3.2_H3.1_[+1TCC]_A3.1_F3.1_T3.2 (ssRNA) RNA: UUUGACAACUGAUCGUUCUUUCUCUUUCCGUAUAUAUAUUCUUUCUCGAUCAGUUGUCUUU | 25.7 |
| Ie_S4_P3E.2_K3.1_C3.2_[+-1CCT]_H3.1_A3.1_F3.1_T3.2 (ssRNA) RNA: UUUGACAACUGAUCGUUCUUUCUCUCCUUGUAUAUAUAUUCUUUCUCGAUCAGUUGUCUUU | 0.625 |
| Ie_S4_P3E.2_K3.1_C3.2_[+-1TTT]_H3.1_A3.1_F3.1_T3.2 (ssRNA) RNA: UUUGACAACUGAUCGUUCUUUCUCUUUUUGUAUAUAUAUUCUUUCUCGAUCAGUUGUCUUU | 1.03 |
| Ie_S4_P3E.2_K3.1_C3.2_H3.1_[+2TTT]_A3.1_F3.1_T3.2 (ssRNA) RNA: UUUGACAACUGAUCGUUCUUUCUCUUGUUUUAUAUAUAUUCUUUCUCGAUCAGUUGUCUUU | 16.5 |
| Ie_S4_P3E.2_K3.1_C3.2_H3.1_[+2CCT]_A3.1_F3.1_T3.2 (ssRNA) RNA: UUUGACAACUGAUCGUUCUUUCUCUUGCCUUAUAUAUAUUCUUUCUCGAUCAGUUGUCUUU | 41.1 |
| Ie_S4_P3E.2_K3.1_C3.2_H3.1_[+3CTT]_A3.1_F3.1_T3.2 (ssRNA) RNA: UUUGACAACUGAUCGUUCUUUCUCUUGUCUUAUAUAUAUUCUUUCUCGAUCAGUUGUCUUU | 11.4 |
| Ie_S4_P3E.2_K3.1_C3.2_H3.1_[+1CTT]_A3.1_F3.1_T3.2 (ssRNA) RNA: UUUGACAACUGAUCGUUCUUUCUCUUCUUGUAUAUAUAUUCUUUCUCGAUCAGUUGUCUUU | 0.982 |
| Ie_S4_P3E.2_K3.1_C3.2_[+-1CCC]_H3.1_A3.1_F3.1_T3.2 (ssRNA) RNA: UUUGACAACUGAUCGUUCUUUCUCUCCCUGUAUAUAUAUUCUUUCUCGAUCAGUUGUCUUU | 0.986 |
| Ie_S4_P3E.2_K3.1_C3.2_H3.1_[+1CCT]_A3.1_F3.1_T3.2 (ssRNA) RNA: UUUGACAACUGAUCGUUCUUUCUCUUCCUGUAUAUAUAUUCUUUCUCGAUCAGUUGUCUUU | 1.07 |
| Ie_S4_P3E.2_K3.1_C3.2_[+-1CT]_H3.1_A3.1_F3.1_T3.2 (ssRNA) RNA: UUUGACAACUGAUCGUUCUUUCUCUCUUGUAUAUAUAUUCUUUCUCGAUCAGUUGUCUUU | 0.942 |
| Ie_S4_P3E.2_K3.1_C3.2_[+-1TT]_H3.1_A3.1_F3.1_T3.2 (ssRNA) RNA: UUUGACAACUGAUCGUUCUUUCUCUUUUGUAUAUAUAUUCUUUCUCGAUCAGUUGUCUUU | 1.2 |
| Ie_S4_P3E.2_K3.1_C3.2_H3.1_[+1TC]_A3.1_F3.1_T3.2 (ssRNA) RNA: UUUGACAACUGAUCGUUCUUUCUCUUUCGUAUAUAUAUUCUUUCUCGAUCAGUUGUCUUU | 50.6 |
| Ie_S4_P3E.2_K3.1_C3.2_H3.1_[+2CT]_A3.1_F3.1_T3.2 (ssRNA) RNA: UUUGACAACUGAUCGUUCUUUCUCUUGCUUAUAUAUAUUCUUUCUCGAUCAGUUGUCUUU | 60.8 |

| Binder | Kd [nM] |
| --- | --- |
| Ie_S4_P3E.2_K3.1_C3.2_[+-1TC]_H3.1_A3.1_F3.1_T3.2 (ssRNA) RNA: UUUGACAACUGAUCGUUCUUUCUCUUCUGUAUAUAUAUUCUUUCUCGAUCAGUUGUCUUU | 0.769 |
| Ib_S2_P3E.1_K3.1_C3.1_H3.1_[T1C]_A3.1_[A6G]_F3.1_T3.1 (ssRNA) RNA: UUUGAUUAAUAUGAUAUCGUUCUUUCUCGUAUGUAUUCUUUCUCGAUAUCAUAUUAAUCUUU | 75.7 |
| Ic_S2_P3E.1_K3.1_C3.1_H3.1_A3.1_[T5A]_F3.1_T3.1 (ssRNA) RNA: UUUGAUUAAUAUGAUAUCGUUCUUUCUUGUAAAUAUUCUUUCUCGAUAUCAUAUUAAUCUUU | 14.9 |
| Ib_S2_P3E.1_K3.1_C3.1_H3.1_[T1A]_A3.1_[A6G]_F3.1_T3.1 (ssRNA) RNA: UUUGAUUAAUAUGAUAUCGUUCUUUCUAGUAUGUAUUCUUUCUCGAUAUCAUAUUAAUCUUU | 257 |
| Ib_S2_P3E.1_K3.1_C3.1_H3.1_[G2C]_A3.1_[T5C]_F3.1_T3.1 (ssRNA) RNA: UUUGAUUAAUAUGAUAUCGUUCUUUCUUCUACAUAUUCUUUCUCGAUAUCAUAUUAAUCUUU | > 2300 |
| Ie_S4_P3E.2_K3.1_C3.2_[+-2CCCTT]_H3.1_A3.1_F3.1_T3.2 (ssRNA) RNA: UUUGACAACUGAUCGUUCUUUCUCCCCUUUUGUAUAUAUAUUCUUUCUCGAUCAGUUGUCUUU | 0.884 |
| Ie_S4_P3E.2_K3.1_C3.2_H3.1_[+2TCTCT]_A3.1_F3.1_T3.2 (ssRNA) RNA: UUUGACAACUGAUCGUUCUUUCUCUUGUCUCUUAUAUAUAUUCUUUCUCGAUCAGUUGUCUUU | 23.6 |
| Ie_S4_P3E.2_K3.1_C3.2_H3.1_[+1CCTCT]_A3.1_F3.1_T3.2 (ssRNA) RNA: UUUGACAACUGAUCGUUCUUUCUCUUCCUCUGUAUAUAUAUUCUUUCUCGAUCAGUUGUCUUU | 0.898 |
| Ie_S4_P3E.2_K3.1_C3.2_[+-1CTCTC]_H3.1_A3.1_F3.1_T3.2 (ssRNA) RNA: UUUGACAACUGAUCGUUCUUUCUCUCUCUCUGUAUAUAUAUUCUUUCUCGAUCAGUUGUCUUU | 0.676 |
| Ie_S4_P3E.2_K3.1_C3.2_H3.1_[+1TTCCT]_A3.1_F3.1_T3.2 (ssRNA) RNA: UUUGACAACUGAUCGUUCUUUCUCUUUUCCUGUAUAUAUAUUCUUUCUCGAUCAGUUGUCUUU | 1.16 |
| Ie_S4_P3E.2_K3.1_C3.2_[+-2TTCC]_H3.1_A3.1_F3.1_T3.2 (ssRNA) RNA: UUUGACAACUGAUCGUUCUUUCUCUUCCUUGUAUAUAUAUUCUUUCUCGAUCAGUUGUCUUU | 1.01 |
| Ie_S4_P3E.2_K3.1_C3.2_[+-1CCCT]_H3.1_A3.1_F3.1_T3.2 (ssRNA) RNA: UUUGACAACUGAUCGUUCUUUCUCUCCCUUGUAUAUAUAUUCUUUCUCGAUCAGUUGUCUUU | 0.775 |
| Ie_S4_P3E.2_K3.1_C3.2_H3.1_[+1CCTC]_A3.1_F3.1_T3.2 (ssRNA) RNA: UUUGACAACUGAUCGUUCUUUCUCUUCCUCGUAUAUAUAUUCUUUCUCGAUCAGUUGUCUUU | 64 |
| Ie_S4_P3E.2_K3.1_C3.2_[+-1CCTC]_H3.1_A3.1_F3.1_T3.2 (ssRNA) RNA: UUUGACAACUGAUCGUUCUUUCUCUCCUCUGUAUAUAUAUUCUUUCUCGAUCAGUUGUCUUU | 1.06 |
| Ie_S4_P3E.2_K3.1_C3.2_H3.1_[+1TTCC]_A3.1_F3.1_T3.2 (ssRNA) RNA: UUUGACAACUGAUCGUUCUUUCUCUUUUCCGUAUAUAUAUUCUUUCUCGAUCAGUUGUCUUU | 45.7 |
| Ie_S4_P3E.2_K3.1_C3.2_[+-2T]_H3.1_A3.1_F3.1_T3.2 (ssRNA) RNA: UUUGACAACUGAUCGUUCUUUCUCUUUGUAUAUAUAUUCUUUCUCGAUCAGUUGUCUUU | 0.987 |
| Ie_S4_P3E.2_K3.1_C3.2_[+-1C]_H3.1_A3.1_F3.1_T3.2 (ssRNA) RNA: UUUGACAACUGAUCGUUCUUUCUCUCUGUAUAUAUAUUCUUUCUCGAUCAGUUGUCUUU | 1.07 |
| Ie_S4_P3E.2_K3.1_C3.2_H3.1_[+3C]_A3.1_F3.1_T3.2 (ssRNA) RNA: UUUGACAACUGAUCGUUCUUUCUCUUGUCAUAUAUAUUCUUUCUCGAUCAGUUGUCUUU | 6.8 |
